Reference: IntAct's records for PubMed 18502764

Molecular target: ehd2_mouse Ehd2 (UniProt Q8BH64)
UniProt Q8BH64, sequence (Q8BH64 whole entry): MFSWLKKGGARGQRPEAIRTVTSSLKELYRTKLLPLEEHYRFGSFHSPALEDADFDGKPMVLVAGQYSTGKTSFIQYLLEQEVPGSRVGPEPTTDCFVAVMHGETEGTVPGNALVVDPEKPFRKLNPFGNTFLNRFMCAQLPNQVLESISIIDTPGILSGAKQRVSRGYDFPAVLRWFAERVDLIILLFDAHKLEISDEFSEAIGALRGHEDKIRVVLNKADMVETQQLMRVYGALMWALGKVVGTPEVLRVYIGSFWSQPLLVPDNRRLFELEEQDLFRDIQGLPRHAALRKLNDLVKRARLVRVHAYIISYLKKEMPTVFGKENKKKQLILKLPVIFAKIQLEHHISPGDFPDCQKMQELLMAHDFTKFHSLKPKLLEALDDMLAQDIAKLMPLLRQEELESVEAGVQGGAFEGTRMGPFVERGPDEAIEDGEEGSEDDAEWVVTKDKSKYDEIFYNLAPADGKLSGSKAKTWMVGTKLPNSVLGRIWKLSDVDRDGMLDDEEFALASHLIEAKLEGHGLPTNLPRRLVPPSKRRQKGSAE

effect of a mutation on the interaction: decreasing interaction
Substance: Myoferlin (Homo sapiens), Q9NZM1 N238C
